In US20230212319A1, “NOVEL ANTIGEN BINDING DOMAINS AND SYNTHETIC ANTIGEN RECEPTORS INCORPORATING THE SAME” (University of Southern California, priority 2020, published 2023):

B1: 22067 (protein)
chain: MALPVTALLLPLALLLHAARPQLQLQESGPGLVKPSETLSLTCTVSGDSISSGDYYWGWIRQPPGKGLEWIGHIYYSGVTYYNPSLKSRVTISVDTSRNQFSLKLSSVTAADTAVYYCTREDSSNWRSRGQGTLVTVSSLEAAAKEDLKNVFPPEVAVFEPSEAEISHTQKATLVCLATGFYPDHVELSWWVNGKEVHSGVCTDPQPLKEQPALNDSRYCLSSRLRVSATFWQNPRNHFRCQVQFYGLSENDEWTQDRAKPVTQIVSAEAWGRADCGFTSESYQQGVLSATILYEILLGKATLYAVLVSALVLMAMVKRKDSRGRAKRSGSGATNFSLLKQAGDVEENPGPTSMDWIWRILFLVGAATGAHSFEVQLLESGGGLIQPGGSLRLSCAASGFTFSSHAMTWVRQAPGKGLEWVSAISGSGDYTHYADSVKGRFTISRDNSKNTVYLQMNSLRAEDSAVYYCAKDEDGGSLLGHRGQGTLVTVSSTRIQNPDPAVYQLRDSKSSDKSVCLFTDFDSQTNVSQSKDSDVYITDKCVLDMRSMDFKSNSAVAWSNKSDFACANAFNNSIIPEDTFFPSPESSCDVKLVEKSFETDTNLNFQNLSVIGFRILLLKVAGFNLLMTLRLWSSRAKRSGSGVKQTLNFDLLKLAGDVESNPGPSRGHMTEYKPTVRLATRDDVPRAVRTLAAAFADYPATRHTVDPDRHIERVTELQELFLTRVGLDIGKVWVADDGAAVAVWTTPESVEAGAVFAEIGPRMAELSGSRLAAQQQMEGLLAPHRPKEPAWFLATVGVSPDHQGKGLGSAVVLPGVEAAERAGVPAFLETSAPRNLPFYERLGFTVTADVEVPEGPRTWCMTRKPGA
B2: 22066 (protein)
chain: MALPVTALLLPLALLLHAARPQLQLQESGPGLVKPSETLSLTCTVSGDSISSGDYYWGWIRQPPGKGLEWIGHIYYSGVTYYNPSLKSRVTISVDTSRNQFSLKLSSVTAADTAVYYCTREDSSNWRSRGQGTLVTVSSLEVAALEREDLKNVFPPEVAVFEPSEAEISHTQKATLVCLATGFYPDHVELSWWVNGKEVHSGVCTDPQPLKEQPALNDSRYCLSSRLRVSATFWQNPRNHFRCQVQFYGLSENDEWTQDRAKPVTQIVSAEAWGRADCGFTSESYQQGVLSATILYEILLGKATLYAVLVSALVLMAMVKRKDSRGRAKRSGSGATNFSLLKQAGDVEENPGPTSMDWIWRILFLVGAATGAHSFEVQLLESGGGLIQPGGSLRLSCAASGFTFSSHAMTWVRQAPGKGLEWVSAISGSGDYTHYADSVKGRFTISRDNSKNTVYLQMNSLRAEDSAVYYCAKDEDGGSLLGHRGQGTLVTVSSTRIQNPDPAVYQLRDSKSSDKSVCLFTDFDSQTNVSQSKDSDVYITDKCVLDMRSMDFKSNSAVAWSNKSDFACANAFNNSIIPEDTFFPSPESSCDVKLVEKSFETDTNLNFQNLSVIGFRILLLKVAGFNLLMTLRLWSSRAKRSGSGVKQTLNFDLLKLAGDVESNPGPSRGHMTEYKPTVRLATRDDVPRAVRTLAAAFADYPATRHTVDPDRHIERVTELQELFLTRVGLDIGKVWVADDGAAVAVWTTPESVEAGAVFAEIGPRMAELSGSRLAAQQQMEGLLAPHRPKEPAWFLATVGVSPDHQGKGLGSAVVLPGVEAAERAGVPAFLETSAPRNLPFYERLGFTVTADVEVPEGPRTWCMTRKPGA
B3: 22154 (protein)
chain: MALPVTALLLPLALLLHAARPACEVQLLESGGGLIQPGGSLRLSCAASGFTFSSHAMTWVRQAPGKGLEWVSAISGSGDYTHYADSVKGRFTISRDNSKNTVYLQMNSLRAEDSAVYYCAKDEDGGSLLGHRGQGTLVTVSSGTGGGGSGGGGSGGGGSEFSYVLTQPPSVSVAPGQTARITCGGNNIGGKSVHWYQQPPGQAPVVVVYDDSDRPSGIPERFSGSNSGNTATLTISRVEAGDEAVYYCQVWDSSSDHVVFGGGTKLTVLLEGQPKANPTVTLFPPSSEELQANKATLVCLISDFYPGAVTVAWKADGSPVKAGVETTKPSKQSNNKYAASSYLSLTPEQWKSHRSYSCQVTHEGSTVEKTVAPTECSGRADCGFTSESYQQGVLSATILYEILLGKATLYAVLVSALVLMAMVKRKDSRGRAKRSGSGATNFSLLKQAGDVEENPGPTSATMDWIWRILFLVGAATGAHSGPQVQLQESGGGLAQAGGSLRLSCAASGRTFSMGWFRQAPGKEREFVAAITYSGGSPYYASSVRGRFTISRDNAKNTVYLQMNSLKPEDTAVYYCAANPTYGSDWNAENWGQGTQVTVSSGSGGGGSGGGGSGGGGSFEQLQLQESGPGLVKPSETLSLTCTVSGGSISSSSYFWGWIRQPPGKGLEWIGSIYYSGITYYNPSLKSRVTISVDTSKNQFSLKLSSVTAADTAVYYCARHDGAVAGLFDYWGQGTLVTVSSATRASTKGPSVFPLAPSSKSTSGGTAALGCLVKDYFPEPVTVSWNSGALTSGVHTFPAVLQSSGLYSLSSVVTVPSSSLGTQTYICNVNHKPSNTKVDKRVEPKSCIPEDTFFPSPESSCDVKLVEKSFETDTNLNFQNLSVIGFRILLLKVAGFNLLMTLRLWSSRAKRSGSGVKQTLNFDLLKLAGDVESNPGPSRGHMTEYKPTVRLATRDDVPRAVRTLAAAFADYPATRHTVDPDRHIERVTELQELFLTRVGLDIGKVWVADDGAAVAVWTTPESVEAGAVFAEIGPRMAELSGSRLAAQQQMEGLLAPHRPKEPAWFLATVGVSPDHQGKGLGSAVVLPGVEAAERAGVPAFLETSAPRNLPFYERLGFTVTADVEVPEGPRTWCMTRKPGA
B4: 22072 (protein)
chain: MALPVTALLLPLALLLHAARPQLQLQESGPGLVKPSETLSLTCTVSGDSISSGDYYWGWIRQPPGKGLEWIGHIYYSGVTYYNPSLKSRVTISVDTSRNQFSLKLSSVTAADTAVYYCTREDSSNWRSRGQGTLVTVSSLEGQPKANPTVTLFPPSSEELQANKATLVCLISDFYPGAVTVAWKADGSPVKAGVETTKPSKQSNNKYAASSYLSLTPEQWKSHRSYSCQVTHEGSTVEKTVAPTECSPIKTDVITMDPKDNCSKDANDTLLLQLTNTSAYYMYLLLLLKSVVYFAIITCCLLRRTAFCCNGEKSRAKRSGSGATNFSLLKQAGDVEENPGPTSMDWIWRILFLVGAATGAHSFEVQLLESGGGLIQPGGSLRLSCAASGFTFSSHAMTWVRQAPGKGLEWVSAISGSGDYTHYADSVKGRFTISRDNSKNTVYLQMNSLRAEDSAVYYCAKDEDGGSLLGHRGQGTLVTVSSTRIQNPDPAVYQLRDSKSSDKSVCLFTDFDSQTNVSQSKDSDVYITDKCVLDMRSMDFKSNSAVAWSNKSDFACANAFNNSIIPEDTFFPSPESSCDVKLVEKSFETDTNLNFQNLSVIGFRILLLKVAGFNLLMTLRLWSSRAKRSGSGVKQTLNFDLLKLAGDVESNPGPSRGHMTEYKPTVRLATRDDVPRAVRTLAAAFADYPATRHTVDPDRHIERVTELQELFLTRVGLDIGKVWVADDGAAVAVWTTPESVEAGAVFAEIGPRMAELSGSRLAAQQQMEGLLAPHRPKEPAWFLATVGVSPDHQGKGLGSAVVLPGVEAAERAGVPAFLETSAPRNLPFYERLGFTVTADVEVPEGPRTWCMTRKPGA

Each molecule was assayed on RAJI cells (assay: JNG assay, co-culture with RAJI cells). Conditions: JNG cells expressing construct, co-culture with Raji.
Type: cell-based
Summary of the method: (§1)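 Jurkat-NFAT-GFP (JNG) cells stably expressing SAR constructs via lentiviral transduction and puromycin/blasticidin selection were cocultured with target cells at E:T ~1:2 for ~4–18 h. NFAT-driven GFP was measured by FACS versus parental JNG cells; scores +/- to 5+ denote ~5–50% GFP-positive cells.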
B1 was tested, and the “NFAT-GFP ASSAY: Raji” value was “+/- (refer to approximately 5%, 10%, 20%, 30%, 40% and 50% GFP positive cells)”.
In the case of B2, the “NFAT-GFP ASSAY: Raji” value is reported as “+/- (refer to approximately 5%, 10%, 20%, 30%, 40% and 50% GFP positive cells)”.
For B3, the “NFAT-GFP ASSAY: Raji” value was 4+ (refer to approximately 5%, 10%, 20%, 30%, 40% and 50% GFP positive cells).
In the case of B4, the “NFAT-GFP ASSAY: Raji” value is reported as “+ (refer to approximately 5%, 10%, 20%, 30%, 40% and 50% GFP positive cells)”.

The molecules below were run on L363 cells (assay: JNG assay, co-culture with L363 cells). Conditions: co-culture with L363.
Type: cell-based
Summary of the method: as §1
For B1, the “NFAT-GFP ASSAY: L363” value was “+ (refer to approximately 5%, 10%, 20%, 30%, 40% and 50% GFP positive cells)”.
For B2, the “NFAT-GFP ASSAY: L363” value was “+/- (refer to approximately 5%, 10%, 20%, 30%, 40% and 50% GFP positive cells)”.
For B3, the “NFAT-GFP ASSAY: L363” value was 2+ (refer to approximately 5%, 10%, 20%, 30%, 40% and 50% GFP positive cells).
B4 was tested, and the “NFAT-GFP ASSAY: L363” value was “+ (refer to approximately 5%, 10%, 20%, 30%, 40% and 50% GFP positive cells)”.

These molecules were tested on Nalm6 cells (assay: JNG assay, co-culture with Nalm6 cells). Conditions: co-culture with Nalm6.
Type: cell-based
Summary of the method: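 Values are semi-quantitative grades of GFP induction, each step approximating 10% more GFP+ cells (5+ ≈50%) above parental reporter cells, measured by FACS after SAR-transduced JNG cells were cultured with targets at ~1:2 E:T for ~4–18 h.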
With B1 the “NFAT-GFP ASSAY: Nalm6” value was “+/- (refer to approximately 5%, 10%, 20%, 30%, 40% and 50% GFP positive cells)”.
B2 was tested, and the “NFAT-GFP ASSAY: Nalm6” value was “+/- (refer to approximately 5%, 10%, 20%, 30%, 40% and 50% GFP positive cells)”.
For B3, the “NFAT-GFP ASSAY: Nalm6” value was “+ (refer to approximately 5%, 10%, 20%, 30%, 40% and 50% GFP positive cells)”.
With B4 the “NFAT-GFP ASSAY: Nalm6” value was “+/- (refer to approximately 5%, 10%, 20%, 30%, 40% and 50% GFP positive cells)”.
